These results are taken from publication PMC3777412 (Nature communications, 2013).

The assay concerns the target Grb2, histidine-tagged, purified (UniProt P62993 1-217). In words: SPR. On the technique in general: In SPR one partner is held on a chip, and binding of the other changes the refractive index at the surface.

Where no end group is shown, it is not given here. [ ]: non-standard residue; d: D form. The star is where a group is joined. Biotin = O=C1N[C@H]2[C@H](CS[C@H]2CCCCC(=O)*)N1; pY = N[C@@H](Cc1ccc(OP(=O)(O)O)cc1)C(=O)O

Sequence of Grb2, histidine-tagged, purified (P62993 whole entry): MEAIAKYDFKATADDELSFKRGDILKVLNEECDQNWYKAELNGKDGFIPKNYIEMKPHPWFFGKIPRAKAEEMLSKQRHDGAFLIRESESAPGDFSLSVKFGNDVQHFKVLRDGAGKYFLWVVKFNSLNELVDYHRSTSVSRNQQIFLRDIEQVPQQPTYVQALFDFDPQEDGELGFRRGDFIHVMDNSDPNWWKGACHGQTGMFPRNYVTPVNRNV

The Kd is the free concentration of one partner at which half of the binding sites on the other are occupied at equilibrium, for simple one-to-one binding. Read a high Kd as weaker binding. On to Biotin-ASASASARV[pY]ENVGLM [pY580 peptide], for which the Kd is 68.5 ± 8.7 nM.
The result for Biotin-ASASAKGHE[pY]TNIKYS [pY542 peptide] reads 118 ± 10.3 nM.
